This is an account of results in US20220177593A1 (CELLDEX THERAPEUTICS, published 2022).

Numbering of substitutions follows the chain as printed.

Experiment [1] concerns the target T1, Domain 1 (Ig-like domain 1) of the human Axl extracellular domain (human, UniProt P30530 34-137).
T1 construct: The tag is not described; also called D1; Domain 1 of the Axl-ECD alone
As to the kind of experiment: ELISA on purified Axl domains coated on plates, Ab301 at 5 ug/mL. Here is the method: (§1) Human Axl domains (D1-D4) of the Axl extracellular domain (Axl-ECD) were expressed in Exi293 cells, purified by nickel affinity chromatography and buffer exchanged to PBS. […] Ab301 was added at 5 μg/mL for 1 hour at room temperature, washed, and subsequently incubated with an HRP- conjugated goat anti-human antibody (Jackson Immunoresearch). Plates were washed and incubated with TMB (Pierce Biotechnology).

In experiment [2] the target is T2, purified extracellular domain of human Axl (human, UniProt P30530 26-451).
T2 construct: extracellular domain; also called human Axl-ECD; Axl-ECD
T2 sequence (looked up): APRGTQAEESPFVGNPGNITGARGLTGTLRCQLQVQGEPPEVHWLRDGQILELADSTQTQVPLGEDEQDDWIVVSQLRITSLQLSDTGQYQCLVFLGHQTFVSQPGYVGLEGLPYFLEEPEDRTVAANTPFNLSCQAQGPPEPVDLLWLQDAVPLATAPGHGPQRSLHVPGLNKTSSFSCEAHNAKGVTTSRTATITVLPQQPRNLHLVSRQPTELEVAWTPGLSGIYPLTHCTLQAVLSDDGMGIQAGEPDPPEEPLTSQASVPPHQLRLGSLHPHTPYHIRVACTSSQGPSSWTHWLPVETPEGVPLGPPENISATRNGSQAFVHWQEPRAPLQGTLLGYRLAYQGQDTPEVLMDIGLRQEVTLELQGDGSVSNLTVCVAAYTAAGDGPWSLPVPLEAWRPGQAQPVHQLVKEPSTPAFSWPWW
Described as above. Here is the method:
as §1

Experiment [3] addresses T3, recombinant human Axl-msFc (human, UniProt P30530 26-449, limits assumed).
T3 construct: also called soluble human Axl-msFc; huAxl; not shown: mouse Fc (msFc)
T3 sequence (looked up): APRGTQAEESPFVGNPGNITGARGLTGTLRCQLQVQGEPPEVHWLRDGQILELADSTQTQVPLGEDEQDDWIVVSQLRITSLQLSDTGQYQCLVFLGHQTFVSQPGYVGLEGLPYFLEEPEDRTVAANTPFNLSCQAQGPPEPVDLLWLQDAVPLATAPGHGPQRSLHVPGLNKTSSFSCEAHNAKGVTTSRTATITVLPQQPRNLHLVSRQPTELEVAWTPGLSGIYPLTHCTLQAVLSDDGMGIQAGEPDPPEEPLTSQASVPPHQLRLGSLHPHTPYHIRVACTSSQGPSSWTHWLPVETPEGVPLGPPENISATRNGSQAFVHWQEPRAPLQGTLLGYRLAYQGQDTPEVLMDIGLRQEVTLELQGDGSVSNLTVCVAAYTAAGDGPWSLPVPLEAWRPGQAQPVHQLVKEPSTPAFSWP
As to the kind of experiment: ELISA, plates coated with recombinant human Axl-msFc. As for the experimental part:
Binding of Ab301 and four humanized antibody subclones to human Axl was determined by ELISA using the following protocol: Microtiter plates were coated with recombinant human Axl-msFc, in phosphate-buffered saline (PBS), and then blocked with 5% bovine serum albumin (BSA) in PBS. Protein A purified human monoclonal antibodies and an isotype control were added at various concentrations and incubated at 37° C. The plates were washed with PBS/Tween and then incubated with a goat-anti-human IgG Fc-specific polyclonal reagent conjugated to horseradish peroxidase (HRP) at 37° C. After washing, the plates were developed with HRP substrate, and analyzed at OD 450-650 using a microtiter plate reader.
(An ELISA detects its analyte on a solid surface through an enzyme-linked reagent.)

Experiment [4] has as its target T4, human Axl expressed on the surface of cells (human, UniProt P30530 26-894).
T4 construct: whole, on cells; also called huAxl; Axl on H1299 cells
T4 sequence (looked up): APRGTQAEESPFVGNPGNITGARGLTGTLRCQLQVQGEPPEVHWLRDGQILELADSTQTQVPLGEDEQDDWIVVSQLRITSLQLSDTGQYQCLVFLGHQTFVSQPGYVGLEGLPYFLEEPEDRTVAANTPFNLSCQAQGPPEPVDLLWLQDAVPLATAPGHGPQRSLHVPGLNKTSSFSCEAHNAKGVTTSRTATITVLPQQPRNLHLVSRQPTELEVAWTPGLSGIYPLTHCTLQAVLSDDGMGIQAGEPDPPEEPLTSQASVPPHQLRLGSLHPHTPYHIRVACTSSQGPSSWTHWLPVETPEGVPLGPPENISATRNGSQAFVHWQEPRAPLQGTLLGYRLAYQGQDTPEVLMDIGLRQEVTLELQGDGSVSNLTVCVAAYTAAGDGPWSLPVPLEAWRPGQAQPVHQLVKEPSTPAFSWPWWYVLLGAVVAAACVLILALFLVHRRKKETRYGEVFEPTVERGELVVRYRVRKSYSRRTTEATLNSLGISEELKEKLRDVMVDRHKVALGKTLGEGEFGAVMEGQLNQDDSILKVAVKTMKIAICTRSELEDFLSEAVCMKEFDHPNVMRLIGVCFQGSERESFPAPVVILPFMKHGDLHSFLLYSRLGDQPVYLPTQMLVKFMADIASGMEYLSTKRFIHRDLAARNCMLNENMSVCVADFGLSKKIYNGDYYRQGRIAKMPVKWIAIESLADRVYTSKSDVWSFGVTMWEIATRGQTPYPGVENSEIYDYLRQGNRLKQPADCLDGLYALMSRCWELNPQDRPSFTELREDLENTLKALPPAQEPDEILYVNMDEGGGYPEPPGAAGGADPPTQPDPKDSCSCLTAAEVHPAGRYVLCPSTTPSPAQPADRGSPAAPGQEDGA
The experiment in a line: flow cytometry on L cells expressing human Axl. As for the experimental part:
(§2) The ability of anti-Axl human antibodies to bind to Axl on cells expressing human Axl on their surface was investigated by flow cytometry as follows: Purified antibodies were incubated with either L cells expressing human Axl on their surface or H1299 cells at room temperature on a plate shaker. After 20 minutes, the cells were washed with PBS containing 0.1% BSA and 0.05% NaN₃ (PBA), and the bound antibodies were detected by incubating the cells with a phycoerythrin (PE)-labeled goat anti-human IgG Fc-specific probe. The excess probe was washed from the cells with PBA and the cell-associated fluorescence was determined by analysis using a FACSCanto II™ instrument (BD Biosciences, NJ, USA) according to the manufacturer's directions.
Background: A flow cytometer gives signals particle by particle.

Experiment [5] has as its target T5, purified extracellular domain of human MerTK (human, UniProt Q12866 21-505).
T5 construct: extracellular domain; also called human MerTK-ECD
T5 sequence (looked up): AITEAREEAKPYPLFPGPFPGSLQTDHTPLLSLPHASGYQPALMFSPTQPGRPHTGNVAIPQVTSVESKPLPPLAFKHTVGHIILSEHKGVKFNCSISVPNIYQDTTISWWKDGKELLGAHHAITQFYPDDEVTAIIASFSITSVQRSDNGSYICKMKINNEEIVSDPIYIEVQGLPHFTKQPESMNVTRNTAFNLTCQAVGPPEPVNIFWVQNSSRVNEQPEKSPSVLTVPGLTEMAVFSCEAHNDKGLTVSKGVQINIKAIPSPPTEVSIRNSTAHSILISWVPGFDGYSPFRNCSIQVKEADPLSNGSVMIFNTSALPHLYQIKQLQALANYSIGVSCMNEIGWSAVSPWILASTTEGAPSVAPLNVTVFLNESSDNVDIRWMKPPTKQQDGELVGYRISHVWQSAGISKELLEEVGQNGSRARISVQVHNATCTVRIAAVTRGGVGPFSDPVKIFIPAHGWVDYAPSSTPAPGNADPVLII
The experiment in a line: ELISA, plates coated with 100 ng purified extracellular domain, titration of Ab301. Here is the method: Binding of Ab301 to human Axl extracellular domain and its lack of binding to human MerTK extracellular domain was determined using the following protocol: Nunc MaxiSorb™ plates (Thermo Fisher Scientific) were coated with 100 ng of the purified extracellular domain of human Axl or human MerTK in […] borate buffer, overnight at 4° C. Plates were washed and blocked for 1 hour at room temperature with Tris-buffered saline (TBS) with 1% BSA. A titration of Ab301 was added to the coated plates for 1 hour at room temperature, followed by washing and incubation with an HRP-conjugated goat anti-human antibody (Jackson Immunoresearch) for 1 hour at room temperature. Washed plates were incubated with 3,3′,5,5′-Tetramethylbenzidine (TMB) substrate (Thermo Fisher Scientific) and read using a Biotek® plate reader. Data are plotted as the optical density at 450 nm (Abs450) as a function of the log-transformed molar concentration of Ab301, and fit to a 4-parameter binding curve using GraphPad Prism™.

The target of experiment [6] is T4, human Axl expressed on the surface of …. The experiment in a line: flow cytometry on H1299 cells. Here is the method:
as §2

B1: Ab301 (antibody, human IgG1, V domains shown)
VH: EVKLEASGGGLVQPGMSVKLSCTTSGFTFSDYWMEWVRQAPGKGLEWVAEIRNKVNNYATYYGKSVKGRFTISRDDSKSIVYLQMNSIRSEDTGIYYCNTLRLFAYWGQGTLVTVSA
VL: DIVMTQAPLSISVTPGESPSMSCRSSKSLLHRNGITYVYWYLQKPGKSPQLLIYRMSTLASGVPDRFSGSGSETDFTLKINKVEAEDVGIYYCGQLLENPYTFGAGTRLEIK
notes: also called anti-Axl antibody Ab301
For the molecule B1, the binding result is on record as “binds” in experiment [1]; “binds” in experiment [2]; “binds” in experiment [3]; “binds” in experiment [4]; “no binding” in experiment [5].

B2: Ab302 (antibody, V domains shown)
VH: EVQLVESGGGLVKPGGSLKLSCAASGFTFSDYWMEWVRQAPGKGLEWVAEIRNKVNNYATYYGKSVKGRFTISRDDSKNTLYLQMNSLKTEDTAVYYCNTLRLFAYWGQGTLVTVSS
VL: DIQMTQSPSSLSASVGDRVTITCRSSKSLLHRQGITYVYWYQQKPGKVPKLLIYRMSTLASGVPSRFSGSGSGTDFTLTISSLQPEDVATYYCGQLLENPYTFGQGTKLEIK
notes: Humanized
Turning to B2, the binding result in experiment [6] and in experiment [3] was “binds” each time.

B3: Ab303 (antibody, V domains shown)
VH: B2 VH with L11V, K13Q, G16R, K19R, D76N, K89R, T90A
VL: B2 VL
notes: Humanized
For B3, the binding result in experiment [6] and in experiment [3] was “binds” throughout.

B4: Ab305 (antibody, V domains shown)
VH: B2 VH with K13Q, G16R, K19R, A23T, A49G, N79S, T80I, L81A, S117A
VL: B2 VL
notes: Humanized
With B4, the binding result in experiment [6] and in experiment [3] was “binds” in each case.

B5: Ab304 (antibody, V domains shown)
VH: B2 VH with K13Q, K19R, A49G, D76E, T80S, L112T
VL: B2 VL
notes: Humanized
B5: the binding result in experiment [6] and in experiment [3] was “binds” in each case.
